Here are results for one molecule from paper PMC9408429, “Thermodynamic Swings: How Ideal Complex of Cas9–RNA/DNA Forms”.

For this data set, the target named is Cas9 (UniProt Q99ZW2 1-1368). Briefly: ITC; RNA 62.5 uM into Cas9 5 uM; n = 2.10; triplicate; dH -399.10 kcal/mol; ITC, 20 mM HEPES pH 7.6, 150 mM NaCl, 25 °C, 200 rpm; no Mg2+ listed. Conditions: protein: recombinant; intramolecular helices; dimer possible. For orientation: In ITC the heat of successive injections is recorded.
Chain of Cas9 (Q99ZW2 whole entry): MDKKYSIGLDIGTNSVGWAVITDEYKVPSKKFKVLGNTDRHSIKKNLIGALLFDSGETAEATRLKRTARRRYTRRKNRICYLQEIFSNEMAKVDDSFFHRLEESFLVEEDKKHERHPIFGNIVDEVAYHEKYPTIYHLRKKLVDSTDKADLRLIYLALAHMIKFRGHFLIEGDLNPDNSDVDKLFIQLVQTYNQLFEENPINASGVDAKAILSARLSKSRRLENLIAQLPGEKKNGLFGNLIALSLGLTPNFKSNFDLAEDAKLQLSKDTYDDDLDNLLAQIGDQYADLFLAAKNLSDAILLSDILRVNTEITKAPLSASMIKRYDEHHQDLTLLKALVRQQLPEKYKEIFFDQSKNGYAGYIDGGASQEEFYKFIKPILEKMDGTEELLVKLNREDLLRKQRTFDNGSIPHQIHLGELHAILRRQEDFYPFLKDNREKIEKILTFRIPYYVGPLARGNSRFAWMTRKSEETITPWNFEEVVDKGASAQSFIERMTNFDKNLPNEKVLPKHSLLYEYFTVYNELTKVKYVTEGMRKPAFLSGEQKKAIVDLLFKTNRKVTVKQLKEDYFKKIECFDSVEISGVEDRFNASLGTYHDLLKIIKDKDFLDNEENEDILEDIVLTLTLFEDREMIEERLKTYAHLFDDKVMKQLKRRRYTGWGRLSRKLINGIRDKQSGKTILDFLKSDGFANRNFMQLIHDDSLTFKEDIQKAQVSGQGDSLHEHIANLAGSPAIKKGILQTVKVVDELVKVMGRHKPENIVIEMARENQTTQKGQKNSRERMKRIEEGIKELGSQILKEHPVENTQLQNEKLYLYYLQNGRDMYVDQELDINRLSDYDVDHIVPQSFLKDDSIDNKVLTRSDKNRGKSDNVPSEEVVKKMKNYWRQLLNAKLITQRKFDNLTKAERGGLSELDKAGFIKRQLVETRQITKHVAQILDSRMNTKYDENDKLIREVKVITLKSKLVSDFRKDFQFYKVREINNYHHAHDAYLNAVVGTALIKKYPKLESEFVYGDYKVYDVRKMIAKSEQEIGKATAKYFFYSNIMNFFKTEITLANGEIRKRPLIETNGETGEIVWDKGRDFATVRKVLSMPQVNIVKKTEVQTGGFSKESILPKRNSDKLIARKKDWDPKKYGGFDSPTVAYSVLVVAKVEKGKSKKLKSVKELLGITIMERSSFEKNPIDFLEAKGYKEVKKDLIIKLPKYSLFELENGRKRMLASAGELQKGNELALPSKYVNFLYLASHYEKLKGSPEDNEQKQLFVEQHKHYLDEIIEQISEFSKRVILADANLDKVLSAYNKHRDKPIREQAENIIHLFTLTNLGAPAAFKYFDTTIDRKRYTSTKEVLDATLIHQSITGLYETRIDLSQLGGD

B1: RNA (sgRNA) (structured_RNA)
RNA: GGUUGGACAUGCUCGACAUUCGUUUUAGAGCUAGAAAUAGCAAGUUAAAAUAAGGCUAGUCCGUUAUCAACUUGAAAAAGUGGCACCGAGUCGGUGCUUUUUU
For the molecule B1, the Kd was determined as 2.21 µM.

What is called Kd is the concentration at which binding is half-saturated.
